To fix the notation:
B1: HC2_LC2 (antibody, V domains shown)
VH: EVQLVESGGGLVQPGGSLRLSCAASGFTFSNAAMYWVRQAPGKGLELVSRIRTKPNNYATYHADSVKGRFTISRDNSKNTLYLQMNSLRAEDTAVYYCTADMATGDYWGQGTLVTVSS
VL: DIQMTQSPSSLSASVGDRVTITCKASQNINKNLDWYQQKPGKAPKPLIYSTNNLQTGVPSRFSGSGSGTDFTLTISSLQPEDFATYYCYQYKSAWTFGQGTKVEIK
notes: humanized 20H4 IgG
B2: HC3_LC2 (antibody, V domains shown)
VH: B1 VH with L81V
VL: B1 VL
notes: humanized 20H4 IgG
B3: HC3_LC5 (antibody, V domains shown)
VH: B1 VH with L81V
VL: EIVMTQSPATLSLSPGERATLSCKASQNINKNLDWYQQKPGQAPRPLIYSTNNLQTGIPARFSGSGSGTDFTLTISSLQPEDFAVYYCYQYKSAWTFGQGTKVEIK
notes: humanized 20H4 IgG
B4: HC3_LC6 (antibody, V domains shown)
VH: B1 VH with L81V
VL: B3 VL with I58V, F71Y
notes: humanized 20H4 IgG
B5: HC2_LC4 (antibody, V domains shown)
VH: B1 VH
VL: B3 VL with P46L
notes: humanized 20H4 IgG
B6: HC3_LC4 (antibody, V domains shown)
VH: B1 VH with L81V
VL: B3 VL with P46L
notes: humanized 20H4 IgG
B7: HC3_LC3 (antibody, V domains shown)
VH: B1 VH with L81V
VL: B1 VL with F71Y
notes: humanized 20H4 IgG
B8: HC5_LC2 (antibody, V domains shown)
VH: B1 VH with V48L, S49A, N76D, L81V
VL: B1 VL
notes: humanized 20H4 IgG
B9: HC2_LC5 (antibody, V domains shown)
VH: B1 VH
VL: B3 VL
notes: humanized 20H4 IgG
B10: HC5_LC4 (antibody, V domains shown)
VH: B1 VH with V48L, S49A, N76D, L81V
VL: B3 VL with P46L
notes: humanized 20H4 IgG
B11: HC5_LC3 (antibody, V domains shown)
VH: B1 VH with V48L, S49A, N76D, L81V
VL: B1 VL with F71Y
notes: humanized 20H4 IgG
B12: HC5_LC5 (antibody, V domains shown)
VH: B1 VH with V48L, S49A, N76D, L81V
VL: B3 VL
notes: humanized 20H4 IgG
B13: HC3_LC1 (antibody, V domains shown)
VH: B1 VH with L81V
VL: B1 VL with P46L
notes: humanized 20H4 IgG
B14: HC5_LC6 (antibody, V domains shown)
VH: B1 VH with V48L, S49A, N76D, L81V
VL: B3 VL with I58V, F71Y
notes: humanized 20H4 IgG
B15: HC5_LC1 (antibody, V domains shown)
VH: B1 VH with V48L, S49A, N76D, L81V
VL: B1 VL with P46L
notes: humanized 20H4 IgG
B16: HC2_LC1 (antibody, V domains shown)
VH: B1 VH
VL: B1 VL with P46L
notes: humanized 20H4 IgG
B17: HC2_LC3 (antibody, V domains shown)
VH: B1 VH
VL: B1 VL with F71Y
notes: humanized 20H4 IgG
B18: HC2_LC6 (antibody, V domains shown)
VH: B1 VH
VL: B3 VL with I58V, F71Y
notes: humanized 20H4 IgG
B19: Chimeric 20H4 (antibody, human IgG1, kappa, V domains shown)
VH: AVQLVESGGGLVQPKESLKISCAASGFTFSNAAMYWVRQAPGKGLELLARIRTKPNNYATYHADSVKGRFTISRDDSQSMVYLHMGNLKTEDTAMYYCTADMATGDYWGPGVMVTVSS
VL: DIQMTQSPPVLSVSVGDRVTLSCKASQNINKNLDWYQQKHGEAPKPLIYSTNNLQTGVPSRFSGSGSGTDYTLTISSLQPEDVATYYCYQYKSAWTFGGGTKLELRR
notes: also called Chi 20H4; chimeric 20H4 control
B20: HC6_LC_k3_7 (antibody, V domains shown)
VH: B1 VH with N76D
VL: B3 VL with N30S, K31N, N32Y, Q55K
B21: HC5_LC_k3_6 (antibody, V domains shown)
VH: B1 VH with V48L, S49A, N76D, L81V
VL: B3 VL with Q27A, N32Q, Q55K
B22: HC6_LC_k3_13 (antibody, V domains shown)
VH: B1 VH with N76D
VL: B3 VL with K31A, Q55K
B23: HC6_LC_k3_1 (antibody, V domains shown)
VH: B1 VH with N76D
VL: B3 VL with K31N, Q55K
B24: HC6_LC_k3_5 (antibody, V domains shown)
VH: B1 VH with N76D
VL: B3 VL with N32Q, Q55K
B25: HC6_LC_k3_4 (antibody, V domains shown)
VH: B1 VH with N76D
VL: B3 VL with K31E, Q55K
B26: HC6_LC_k3_9 (antibody, V domains shown)
VH: B1 VH with N76D
VL: B3 VL with N28G, N30S, K31N, N32Y, D34A, Q55K
B27: HC5_LC_k3_5 (antibody, V domains shown)
VH: B1 VH with V48L, S49A, N76D, L81V
VL: B3 VL with N32Q, Q55K
B28: HC6_LC_k3_6 (antibody, V domains shown)
VH: B1 VH with N76D
VL: B3 VL with Q27A, N32Q, Q55K
B29: HC6_LC_k3_12 (antibody, V domains shown)
VH: B1 VH with N76D
VL: B3 VL with K31D, Q55K
B30: HC6_LC_k3_11 (antibody, V domains shown)
VH: B1 VH with N76D
VL: B3 VL with N30S, K31N, N32Q, Q55K
B31: HC6_LC_k3_10 (antibody, V domains shown)
VH: B1 VH with N76D
VL: B3 VL with N30S, K31N, N32D, Q55K
B32: HC6_LC_k3_3 (antibody, V domains shown)
VH: B1 VH with N76D
VL: B3 VL with K31Q, Q55K
B33: HC6_LC_k3_8 (antibody, V domains shown)
VH: B1 VH with N76D
VL: B3 VL with N28G, N30S, K31N, N32Y, Q55K

Residue numbers refer to the chain shown, from its start.

For the first test, the target named is T1, human alpha-synuclein monomer (human, UniProt P37840 1-140). Kind of test: SPR (Biacore 8K), IgG captured on anti-human Fc, aSyn monomer injected. (SPR reads the build-up and loss of mass on a sensor chip optically.)
Experimental: (§1) Serial 3-fold dilutions of aSyn were injected at a flow rate of 30 μL/min. Each sample was analyzed using a 3-minute association and a 10-minute dissociation. After each injection, the chip was regenerated using 3 M MgCl₂. Binding response was corrected by subtracting the RU from a flow cell capturing an irrelevant IgG at similar density. A 1:1 Languir model of simultaneous fitting of kₒₙ and koff was used for kinetics analysis.
In turn, B1 registered a Kd of 2.33 nM.
On to B2, for which the Kd was found to be 1.63 nM.
For the molecule B3, the Kd was determined as 2.4 nM.
On to B4, for which the affinity, expressed as Kd, was 2.74 nM.
Molecule B5 yielded an equilibrium dissociation constant (Kd) of 9.78 nM.
B6 showed a Kd of 9.08 nM.
On to B7, for which binding was put at a Kd of 5.2 nM.
The same measure, in the same setting: with B8 the figure was 1.56 nM; with B9, 4.11 nM; with B10, 8.48 nM.
In turn, B11 returned a Kd of 5.17 nM.
Still for that read-out and setting: next, B12: 2.46 nM.
In the case of B13, binding was put at a Kd of 2.12 nM.
B14 returned a Kd of 2.78 nM.
As for B15, the equilibrium dissociation constant (Kd) turned out to be 1.97 nM.
B16 gave a Kd of 3.21 nM.
The molecule B17 registered a Kd of 6.59 nM.
B18 showed an equilibrium dissociation constant (Kd) of 5.27 nM.
On to B19, for which binding was put at a Kd of 2.96 nM.

For another test, the target named is T1, human alpha-synuclein monomer. The description is as above. The source holds these as a separate data set.
Experimental: as §1
B1 yielded a Kd of 3.95 nM.

Another test has the same target. The description is as above. This is another data set of the same source.
Experimental: as §1
As for B20, the Kd was found to be 0.22 nM.
For B21, the Kd amounted to 0.19 nM.
B22: the Kd was found to be 0.17 nM.
For the molecule B23, the dissociation constant (Kd) came to 0.16 nM.
The molecule B24 had an equilibrium dissociation constant (Kd) of 0.21 nM.
In turn, B25 registered a Kd of 0.18 nM.
In turn, B26 displayed a Kd of 0.17 nM.
In turn, B27 yielded a Kd of 0.13 nM.
Regarding B28, the dissociation constant (Kd) worked out at 0.14 nM.
B29 returned a Kd of 0.15 nM.
For B30, the Kd was found to be 0.24 nM.
For the molecule B31, binding was characterised by a dissociation constant (Kd) of 0.17 nM.
On the same count and under the same terms, next, B32: 0.16 nM; B33: 0.22 nM.

As usually defined, the Kd is the free concentration of one partner at which half of the binding sites on the other are occupied at equilibrium, for simple one-to-one binding. Lower therefore signals tighter binding.

Source of the values: patent US20230074436A1 (DENALI THERAPEUTICS, published 2023).
